Holding throughout (details): one partner purified
For experiment [1], the target named is T1, TAP complex of MJS TAP1-GFP cells (TAP1-GFP with TAP2) ( | human (endogenous in MJS), UniProt Q03518;Q03519).
T1 construct: also called GFP-tagged TAP
T1 sequence 1: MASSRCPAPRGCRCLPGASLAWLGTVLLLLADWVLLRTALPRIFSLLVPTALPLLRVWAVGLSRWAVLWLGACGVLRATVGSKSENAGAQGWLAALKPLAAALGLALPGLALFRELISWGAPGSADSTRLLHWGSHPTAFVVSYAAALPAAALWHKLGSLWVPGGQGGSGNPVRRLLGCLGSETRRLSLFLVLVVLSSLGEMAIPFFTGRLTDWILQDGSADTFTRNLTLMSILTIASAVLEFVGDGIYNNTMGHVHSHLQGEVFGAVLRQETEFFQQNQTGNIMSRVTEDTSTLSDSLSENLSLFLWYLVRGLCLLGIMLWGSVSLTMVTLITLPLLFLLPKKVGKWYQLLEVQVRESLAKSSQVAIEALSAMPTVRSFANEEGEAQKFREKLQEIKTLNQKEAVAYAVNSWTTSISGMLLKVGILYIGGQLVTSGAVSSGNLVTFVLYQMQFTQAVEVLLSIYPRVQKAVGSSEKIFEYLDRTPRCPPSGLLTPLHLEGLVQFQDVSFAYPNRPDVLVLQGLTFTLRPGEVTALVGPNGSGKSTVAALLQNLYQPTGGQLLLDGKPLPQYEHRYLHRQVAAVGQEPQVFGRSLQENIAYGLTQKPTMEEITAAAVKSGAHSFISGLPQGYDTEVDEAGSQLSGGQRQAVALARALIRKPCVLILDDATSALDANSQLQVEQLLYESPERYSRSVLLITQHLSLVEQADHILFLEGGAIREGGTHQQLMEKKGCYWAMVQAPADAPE
T1 sequence 2: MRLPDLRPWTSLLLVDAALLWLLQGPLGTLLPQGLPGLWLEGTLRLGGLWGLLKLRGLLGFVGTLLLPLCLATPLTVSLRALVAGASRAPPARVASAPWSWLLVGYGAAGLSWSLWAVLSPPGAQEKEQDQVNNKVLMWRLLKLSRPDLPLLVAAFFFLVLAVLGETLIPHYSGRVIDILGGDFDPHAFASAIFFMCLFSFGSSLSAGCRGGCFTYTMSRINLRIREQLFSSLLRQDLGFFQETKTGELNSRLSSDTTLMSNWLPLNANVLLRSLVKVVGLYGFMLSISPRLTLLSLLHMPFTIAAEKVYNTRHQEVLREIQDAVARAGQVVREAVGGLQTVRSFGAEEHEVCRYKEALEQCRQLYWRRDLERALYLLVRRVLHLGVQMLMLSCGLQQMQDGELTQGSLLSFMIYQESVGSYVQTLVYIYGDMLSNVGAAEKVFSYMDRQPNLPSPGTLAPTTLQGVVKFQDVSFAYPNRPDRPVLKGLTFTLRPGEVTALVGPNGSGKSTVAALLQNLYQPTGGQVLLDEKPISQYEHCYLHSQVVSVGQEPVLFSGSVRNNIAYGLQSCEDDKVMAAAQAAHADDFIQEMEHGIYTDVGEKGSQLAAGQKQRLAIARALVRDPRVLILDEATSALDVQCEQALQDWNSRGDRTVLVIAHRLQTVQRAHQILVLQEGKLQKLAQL
As to the kind of experiment: radioligand binding; microsomes of control MJS TAP1-GFP cells incubated on ice with increasing concentrations of RR[125I]YQKSTEL in AP buffer (5 mM MgCl2 in PBS, pH 7.0); corrected for the signal with 200-fold excess of ICP47; triplicate.

The target of experiment [2] is T1, TAP complex of MJS TAP1-GFP cells …. Description: radioligand binding.
Experiment [3] has the same target. As to the kind of experiment: radioligand binding; as a2, but microsomes of MJS TAP1-GFP cells that express EHV-1 UL49.5.

Where no end group is shown, it is not given here. The star is where a group is joined. 125I = [125I]*

B1: radiolabeled reporter peptide RR[125I]YQKSTEL (peptide)
peptide: RRY(125I)QKSTEL
notes: also called ^125I-labeled reporter peptide; radiolabeled peptide
Take B1: the Kd worked out at 277 ± 58 nM in experiment [1], 351 ± 42 nM in experiment [2] and 236 ± 71 nM in experiment [3].

As a reminder, the Kd is the free concentration of one partner at which half of the binding sites on the other are occupied at equilibrium, for simple one-to-one binding. Lower therefore signals a tighter complex.

(Values after paper PMC2386557, “Varicellovirus UL49.5 Proteins Differentially Affect the Function of the Transporter Associated with Antigen Processing, TAP” (PLoS Pathogens, 2008).)
